One data set deals with T1, LAR-7022.
T1 sequence: ADDIGTSRPQE

A further data set relates to T2, LAR-7048.
T2 sequence: PRRICV

Another data set deals with T3, LAR-7047.
T3 sequence: VFFRRQTA

Consider Staphopain A and Staphopain B, for which the “hydrolysis of the peptide substrate, fragments by mass spectrometry” value in the data set on LAR-7022 is recorded as “Degradation of LAR-7022 (b-ADDIG-TSRPQE): 1188.56 amu produced specific fragment pick: 717.37 corresponding to TSRPQE sequence”. Moreover, the “degradation of the control peptide” value in the data set with LAR-7048 and in the data set on LAR-7047 was “No degradation was observed in these systems” throughout.

The values are drawn from US8962697.
